Assay results as given in paper PMC8782923, “A Klotho-derived peptide protects against kidney fibrosis by targeting TGF-β signaling” (Nature Communications, 2022).
Blank lines part the entries; values can stand above or below the binder they belong to. Ends that are not written are not given here.

Key:
Conditions in all cases: both partners purified
[1] = target: T1, Recombinant TGF-β receptor 2 protein (UniProt P37173 23-166); assay: SPR; Biacore T200, 25 °C; TβR2 amine-coupled on a CM5 chip (50 µg/ml in 10 mM acetate pH 4.0); peptides in PBS injected at 60 µl/min, 180 s association, 540 s dissociation; 1:1 binding model
T1 construct: TGF-β receptor 2, recombinant, 43.4 kDa, >95% by SDS-PAGE; By its catalogue number probably a human extracellular domain with a carrier tag, biotinylated (surmise); The TβR2 of the microplate assay (10358-H08B) is called human; also called TβR2; type 2 TGF-β receptor; source: bought: Sino Biological Inc. (10358-H03H-B)

[2] = target: T2, Recombinant TGF-β receptor 2 protein (10358-H03H-B; Sino Biological Inc.) (UniProt P37173 23-166); assay: SPR; Biacore T200, 25 °C; TβR2 amine-coupled to a CM5 chip; peptides in PBS injected at 60 μl/min, 180 s injection, 540 s dissociation; 1:1 binding model
T2 construct: TGF-β receptor 2, recombinant, 43.4 kDa; also called TβR2; type 2 TGF-β receptor; source: bought: Sino Biological Inc. (>95% as determined by SDS-PAGE)

[3] = target: T3, Human TβR2 (10358-H08B; Sino Biological Inc.) (human, UniProt P37173 23-166); assay: microplate-based fluorescence direct binding assay; TβR2 (10 μg/ml) or BSA coated on a 96-well microplate; FITC-peptide at 50 μg/ml, 1 h at room temperature, washed four times, fluorescence read
T3 construct: TGF-β receptor 2, human; source: bought: Sino Biological Inc
T3 sequence (P37173 23-166): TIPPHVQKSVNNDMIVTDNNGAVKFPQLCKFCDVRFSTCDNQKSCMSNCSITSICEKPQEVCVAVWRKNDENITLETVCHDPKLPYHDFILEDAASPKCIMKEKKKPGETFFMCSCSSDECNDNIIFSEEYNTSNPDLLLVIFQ

T2 sequence (P37173 23-166): as above
T1 sequence (P37173 23-166): as above

koff [1]: 0.000578 s⁻¹
B1: Klotho-derived peptide 1 (peptide, UniProt Q9UEF7 57-86, looked up)
peptide: FQGTFPDGFLWAVGSAAYQTEGGWQQHGKG
notes: Klotho, human, 30 amino acids from Phe57 to Gly86; 3.229 kDa; also called KP1; source: synthetic peptide (GenScript, >95% purity)

Kd [2]: 1.41 µM
koff [2]: 0.00058 s⁻¹
kon [2]: 408 M⁻¹ s⁻¹
B2: Klotho-derived peptide 1 (KP1) (peptide, UniProt Q9UEF7 57-86, looked up)
peptide: FQGTFPDGFLWAVGSAAYQTEGGWQQHGKG
notes: Klotho, human; peptide of 30 amino acids from Phe57 to Gly86; 3.229 kDa; the results give Phe57 to Gly86; source: synthetic peptide (GenScript, >95% purity)

binding result [3]: binds
B3: FITC-labeled KP1 (peptide, UniProt Q9UEF7 57-86, looked up)
peptide: FQGTFPDGFLWAVGSAAYQTEGGWQQHGKG
modifications: also: FITC label, position not given here
notes: Klotho, human; peptide of 30 amino acids from Phe57 to Gly86; also called FITC-KP1; source: synthetic peptide, labeled with fluorescein isothiocyanate (FITC)
